Test results published in patent US10202593B2, “Evolved sortases and uses thereof” (President and Fellows of Harvard College, priority 2013, dated 2019).
Like-named read-outs stand apart in the source and are kept apart here.

Columns and labels:
Format in all cases: biochemical
Abz-LXEXGK(Dnp) peptides = assay: Enzyme specificity assay (percent substrate conversion by HPLC)
Procedure: (A, D) For each of eSrtA, eSrtA(2A-9), and eSrtA(4S-9), we incubated an activity matched quantity of enzyme (47.5 nM eSrtA, 450 nM eSrtA(2A-9), 115 nM eSrtA(4S-9)) with 10 μM Abz-LXEXGK(Dnp) (SEQ ID NO: 33) and 100 mM Gly-Gly-Gly peptide as listed for 15 minutes. Percent substrate conversion was monitored by reverse phase HPLC analysis and UV absorbance at 355 nm. […] LPEXG: SEQ ID NO: 34.
(§1) Assays to determine eSrtA, eSrtA(2A-9) and eSrtA(4S-9) specificity were performed by preparing 10 μM stocks of Abz-LXEXGK(Dnp) (SEQ ID NO: 75) peptides in 300 mM Tris pH 7.5, 150 mM NaCl, 5 mM CaCl2, 5% v/v DMSO, and 100 mM Gly-Gly-Gly-COOH (GGG). Reactions were performed by adding eSrtA(2A-9) to a final concentration of 450 nM, eSrtA(4S-9) to a final concentration of 115 nM or eSrtA to a final concentration of 47.5 nM and a final volume of 100 μL, then incubating at 22.5° C. for 15 minutes. Reactions were quenched by the addition of 0.2 volumes of 5 M HCl, then were injected onto an analytical reverse-phase Eclipse XDB-C18 HPLC column (4.6×150 mm, 5 μm, Agilent Technologies) and chromatographed using a gradient of 10 to 65% acetonitrile with 0.1% TFA in 0.1% aqueous TFA over 13 minutes. Retention times under these conditions for the Abz-LPETGK(Dnp)-CONH2 (SEQ ID NO: 19) substrate, the released GKDnp peptide, and the Abz-LPETGGG-COOH (SEQ ID NO: 20) product were 12.8, 10.4, and 9.1 min, respectively, while the remaining Abz-LXEXGK(Dnp)-CONH2 (SEQ ID NO: 74) substrates varied in retention time between 9 and 13 minutes. To calculate the percent conversion, the ratio of the integrated areas of the GK(Dnp)-CONH2 and Abz-LPETGK(Dnp)-CONH2 (SEQ ID NO: 19) peptide Abs355 peaks were compared directly. Subsequent determination of kcat/Km and KH were performed as described for in vitro SrtA characterization.

LSETG = assay: In vitro sortase kinetics HPLC assay, LSETG substrate
Procedure: (§2) See below for details on sortase expression and purification, and on the synthesis of Abz-LPETGK(Dnp)-CONH2 (SEQ ID NO: 19). […] Reactions were initiated with the addition of enzyme and incubated at 22.5° C. for 3 to 20 minutes before quenching with 0.5 volumes of 1 M HCl. Five to ten nmol of peptide from the quenched reactions were injected onto an analytical reverse-phase Eclipse XDB-C18 HPLC column (4.6×150 mm, 5 μm, Agilent Technologies) and chromatographed using a gradient of 10 to 65% acetonitrile with 0.1% TFA in 0.1% aqueous TFA over 13 minutes. Retention times under these conditions for the Abz-LPETGK(Dnp)-CONH2 (SEQ ID NO: 19) substrate, the released GKDnp peptide, and the Abz-LPETGGG-COOH (SEQ ID NO: 20) product were 12.8, 10.4, and 9.1 min, respectively. To calculate the percent conversion, the ratio of the integrated areas of the Abz-LPETGGG-COOH (SEQ ID NO: 20) and Abz-LPETGK(Dnp)-CONH2 (SEQ ID NO: 19) peptide Abs220 peaks was compared to a standard curve generated by mixing the product and starting peptide in known ratios. To determine […] and Km, reaction rates were fit to the Michaelis-Menten equation using OriginPro 7.0 software. All kinetics values reported represent the average of at least three measurements. Percent conversion was also calculated by using the ratio of the integrated areas of the GK(Dnp)-CONH2 and Abz-LPETGK(Dnp)-CONH2 peptide Abs355 peaks were compared directly (Example 5). To determine kcat and Km, LPETG, reaction rates were fit to the Michaelis-Menten equation using Microsoft Excel using the Solver add-in. To determine Km,GGG and KH, reaction rates were fit to the modified Michaelis-Menten, for which KH is as defined when KH<<Km,GGG.
as §1
(§3) The original pentamutant comprising the mutations P94R, D160N, D165A, K190E, and K196T is referred to as eSrtA. Sortase variants herein were evolved using eSrtA as the parent enzyme in the evolution experiments. In some cases, an evolved sortase comprises a N160K mutation instead of a D160N or a T196S mutation instead of a K196T. Parameters are reported with their standard deviations as determined from three technical replicates. kcat, Km and kcat/Km parameters were determined at 100 mM GGG concentration, while Km,GGG and KH parameters were determined at 1 mM concentration of the listed substrate.

LPEAG = assay: In vitro sortase kinetics HPLC assay, LPEAG substrate
Procedure: as §2, §1, §3

[1] = Sub LSETG, 100 mM GGG, read-out: Km
[2] = Sub LPEAG, 100 mM GGG, read-out: Km

Row | Molecule | reduced activity on the next most active substrates, LSETG and LRETG, versus LAETG (Abz-LXEXGK(Dnp) peptides; position 2 substrate profile, FIG. 20E) | KH (LSETG; 1 mM LSETG) | Km (LSETG; 1 mM LSETG, read-out: Km,GGG) | Kcat (Hz) (LSETG; Sub LSETG, 100 mM GGG) | Km (LSETG; [1]) | KH (LPEAG; 1 mM LPEAG) | Km (LPEAG; 1 mM LPEAG, read-out: Km,GGG) | Kcat (Hz) (LPEAG; Sub LPEAG, 100 mM GGG) | Km (LPEAG; [2]) | difference in transpeptidation of LPESG over LPETG (Abz-LXEXGK(Dnp) peptides; FIG. 20A, 10 μM peptide, 100 mM GGG, 15 minutes) | activity on the substrates LPEAG, LPECG and LPESG (Abz-LXEXGK(Dnp) peptides; position 4 substrate profile, FIGS. 20A-B)
1 | eSrtA(2A-9): P94R, S102C, A104H, E105D, K138P, K152I, N160K, K162H, T164N, D165A, K173E, I182V, K190E, T196S (protein) QAKPQIPKDKSKVAGYIEIPDADIKEPVYPGPATREQLNRGVCFHDENESLDDQNISIAGHTFIDRPNYQFTNLKAAKPGSMVYFKVGNETRIYKMTSIRKVHPNAVEVLDEQEGKDKQLTLVTCDDYNEETGVWESRKIFVATEVK | > 20 fold | 26.0 ± 3.4 µM | 1270 ± 200 µM | 0.115 ± 0.007 Hz | 331 ± 67 µM | – | – | – | – | – | –
2 | eSrtA (protein) QAKPQIPKDKSKVAGYIEIPDADIKEPVYPGPATREQLNRGVSFAEENESLDDQNISIAGHTFIDRPNYQFTNLKAAKKGSMVYFKVGNETRKYKMTSIRNVKPTAVEVLDEQKGKDKQLTLITCDDYNEETGVWETRKIFVATEVK | – | 37.4 ± 3.4 µM | 337 ± 16 µM | 0.102 ± 0.001 Hz | 533 ± 24 µM | 599 ± 41 µM | 48400 ± 3100 µM | 0.74 ± 0.04 Hz | 83.4 ± 0.6 µM | – | –
3 | eSrtA(4S-9): P94R, N98D, S102C, A104V, A118T, F122A, K134R, F144L, D160N, D165A, I182V, E189F, K190E, K196T (protein) QAKPQIPKDKSKVAGYIEIPDADIKEPVYPGPATREQLDRGVCFVEENESLDDQNISITGHTAIDRPNYQFTNLRAAKKGSMVYLKVGNETRKYKMTSIRNVKPTAVEVLDEQKGKDKQLTLVTCDDYNFETGVWETRKIFVATEVK | – | – | – | – | – | 193 ± 30 µM | 41000 ± 4000 µM | 1.90 ± 0.01 Hz | 154 ± 3 µM | approximately 40 fold | significant activity
